Measurements taken from patent publication US20110158908A1, “CYCLOSPORIN A-BINDING PROTEIN” (Sapporo Medical University, priority 2007, published 2011).

Target: recombinant CSABP protein (CSABP-FL) (human) (UniProt Q9H6S0)
Test: SPR, Biacore 3000; recombinant CSABP-FL immobilized on CM5 chip by amine coupling, CsA in PBS-8% DMSO as analyte

In the case of cyclosporin A (CsA) (peptide), the Kd is reported as 120 nM.
